Data on 18 molecules can be found in patent publication US20140303084A1 (Biogen, published 2014).

The labels stand for the following.
B1: RRAPGKLT-Orn-LASY-Asp-WLFWTGIA-CONH2 (peptide)
peptide: RRAPGKLT[Orn]LASYDWLFWTGIA-NH2
modifications: N-terminus assumed
SMILES: CC[C@H](C)[C@H](NC(=O)CNC(=O)[C@@H](NC(=O)[C@H](Cc1c[nH]c2ccccc12)NC(=O)[C@H](Cc1ccccc1)NC(=O)[C@H](CC(C)C)NC(=O)[C@H](Cc1c[nH]c2ccccc12)NC(=O)[C@H](CC(=O)O)NC(=O)[C@H](Cc1ccc(O)cc1)NC(=O)[C@H](CO)NC(=O)[C@H](C)NC(=O)[C@H](CC(C)C)NC(=O)[C@H](CCCN)NC(=O)[C@@H](NC(=O)[C@H](CC(C)C)NC(=O)[C@H](CCCCN)NC(=O)CNC(=O)[C@@H]1CCCN1C(=O)[C@H](C)NC(=O)[C@H](CCCNC(=N)N)NC(=O)[C@@H](N)CCCNC(=N)N)[C@@H](C)O)[C@@H](C)O)C(=O)N[C@@H](C)C(N)=O
B2: RRAPGCLTALASYAWLCWTGIA-CONH2 (peptide)
peptide: RRAPGCLTALASYAWLCWTGIA-NH2
modifications: cysteine pairing not given here
B3: RRAPGKLT-Lys-LASY-Glu-WLFWTGIA-COOH (peptide)
peptide: RRAPGKLTKLASYEWLFWTGIA-OH
B4: RRAPGKLT-Asp-LASY-Orn-WLFWTGIA-CONH2 (peptide)
peptide: RRAPGKLTDLASY[Orn]WLFWTGIA-NH2
modifications: N-terminus assumed
SMILES: CC[C@H](C)[C@H](NC(=O)CNC(=O)[C@@H](NC(=O)[C@H](Cc1c[nH]c2ccccc12)NC(=O)[C@H](Cc1ccccc1)NC(=O)[C@H](CC(C)C)NC(=O)[C@H](Cc1c[nH]c2ccccc12)NC(=O)[C@H](CCCN)NC(=O)[C@H](Cc1ccc(O)cc1)NC(=O)[C@H](CO)NC(=O)[C@H](C)NC(=O)[C@H](CC(C)C)NC(=O)[C@H](CC(=O)O)NC(=O)[C@@H](NC(=O)[C@H](CC(C)C)NC(=O)[C@H](CCCCN)NC(=O)CNC(=O)[C@@H]1CCCN1C(=O)[C@H](C)NC(=O)[C@H](CCCNC(=N)N)NC(=O)[C@@H](N)CCCNC(=N)N)[C@@H](C)O)[C@@H](C)O)C(=O)N[C@@H](C)C(N)=O
B5: RRAPGKLT-Asp-LASY-Orn-WLFWTGIA-COOH (peptide)
peptide: RRAPGKLTDLASY[Orn]WLFWTGIA-OH
modifications: N-terminus assumed
SMILES: CC[C@H](C)[C@H](NC(=O)CNC(=O)[C@@H](NC(=O)[C@H](Cc1c[nH]c2ccccc12)NC(=O)[C@H](Cc1ccccc1)NC(=O)[C@H](CC(C)C)NC(=O)[C@H](Cc1c[nH]c2ccccc12)NC(=O)[C@H](CCCN)NC(=O)[C@H](Cc1ccc(O)cc1)NC(=O)[C@H](CO)NC(=O)[C@H](C)NC(=O)[C@H](CC(C)C)NC(=O)[C@H](CC(=O)O)NC(=O)[C@@H](NC(=O)[C@H](CC(C)C)NC(=O)[C@H](CCCCN)NC(=O)CNC(=O)[C@@H]1CCCN1C(=O)[C@H](C)NC(=O)[C@H](CCCNC(=N)N)NC(=O)[C@@H](N)CCCNC(=N)N)[C@@H](C)O)[C@@H](C)O)C(=O)N[C@@H](C)C(=O)O
B6: RRAPGKLT-Dap-LASY-Asp-WLFWTGIA-CONH2 (peptide)
peptide: RRAPGKLT[Dap]LASYDWLFWTGIA-NH2
modifications: N-terminus assumed
SMILES: CC[C@H](C)[C@H](NC(=O)CNC(=O)[C@@H](NC(=O)[C@H](Cc1c[nH]c2ccccc12)NC(=O)[C@H](Cc1ccccc1)NC(=O)[C@H](CC(C)C)NC(=O)[C@H](Cc1c[nH]c2ccccc12)NC(=O)[C@H](CC(=O)O)NC(=O)[C@H](Cc1ccc(O)cc1)NC(=O)[C@H](CO)NC(=O)[C@H](C)NC(=O)[C@H](CC(C)C)NC(=O)[C@H](CN)NC(=O)[C@@H](NC(=O)[C@H](CC(C)C)NC(=O)[C@H](CCCCN)NC(=O)CNC(=O)[C@@H]1CCCN1C(=O)[C@H](C)NC(=O)[C@H](CCCNC(=N)N)NC(=O)[C@@H](N)CCCNC(=N)N)[C@@H](C)O)[C@@H](C)O)C(=O)N[C@@H](C)C(N)=O
B7: RRAPGKLT-Dap-LASY-Asp-WLFWTGIA-COOH (peptide)
peptide: RRAPGKLT[Dap]LASYDWLFWTGIA-OH
modifications: N-terminus assumed
SMILES: CC[C@H](C)[C@H](NC(=O)CNC(=O)[C@@H](NC(=O)[C@H](Cc1c[nH]c2ccccc12)NC(=O)[C@H](Cc1ccccc1)NC(=O)[C@H](CC(C)C)NC(=O)[C@H](Cc1c[nH]c2ccccc12)NC(=O)[C@H](CC(=O)O)NC(=O)[C@H](Cc1ccc(O)cc1)NC(=O)[C@H](CO)NC(=O)[C@H](C)NC(=O)[C@H](CC(C)C)NC(=O)[C@H](CN)NC(=O)[C@@H](NC(=O)[C@H](CC(C)C)NC(=O)[C@H](CCCCN)NC(=O)CNC(=O)[C@@H]1CCCN1C(=O)[C@H](C)NC(=O)[C@H](CCCNC(=N)N)NC(=O)[C@@H](N)CCCNC(=N)N)[C@@H](C)O)[C@@H](C)O)C(=O)N[C@@H](C)C(=O)O
B8: RRAPGKLT-Asp-LASY-Lys-WLFWTGIA-CONH2 (peptide)
peptide: RRAPGKLTDLASYKWLFWTGIA-NH2
B9: RRAPGKLT-Dab-LASY-Asp-WLFWTGIA-CONH2 (peptide)
peptide: RRAPGKLT[Dab]LASYDWLFWTGIA-NH2
modifications: N-terminus assumed
SMILES: CC[C@H](C)[C@H](NC(=O)CNC(=O)[C@@H](NC(=O)[C@H](Cc1c[nH]c2ccccc12)NC(=O)[C@H](Cc1ccccc1)NC(=O)[C@H](CC(C)C)NC(=O)[C@H](Cc1c[nH]c2ccccc12)NC(=O)[C@H](CC(=O)O)NC(=O)[C@H](Cc1ccc(O)cc1)NC(=O)[C@H](CO)NC(=O)[C@H](C)NC(=O)[C@H](CC(C)C)NC(=O)[C@H](CCN)NC(=O)[C@@H](NC(=O)[C@H](CC(C)C)NC(=O)[C@H](CCCCN)NC(=O)CNC(=O)[C@@H]1CCCN1C(=O)[C@H](C)NC(=O)[C@H](CCCNC(=N)N)NC(=O)[C@@H](N)CCCNC(=N)N)[C@@H](C)O)[C@@H](C)O)C(=O)N[C@@H](C)C(N)=O
B10: RRAPGKLT-Lys-LASY-Glu-WLFWTGIA-CONH2 (peptide)
peptide: RRAPGKLTKLASYEWLFWTGIA-NH2
B11: RRAPGKLT-Asp-LASY-Dap-WLFWTGIA-COOH (peptide)
peptide: RRAPGKLTDLASY[Dap]WLFWTGIA-OH
modifications: N-terminus assumed
SMILES: CC[C@H](C)[C@H](NC(=O)CNC(=O)[C@@H](NC(=O)[C@H](Cc1c[nH]c2ccccc12)NC(=O)[C@H](Cc1ccccc1)NC(=O)[C@H](CC(C)C)NC(=O)[C@H](Cc1c[nH]c2ccccc12)NC(=O)[C@H](CN)NC(=O)[C@H](Cc1ccc(O)cc1)NC(=O)[C@H](CO)NC(=O)[C@H](C)NC(=O)[C@H](CC(C)C)NC(=O)[C@H](CC(=O)O)NC(=O)[C@@H](NC(=O)[C@H](CC(C)C)NC(=O)[C@H](CCCCN)NC(=O)CNC(=O)[C@@H]1CCCN1C(=O)[C@H](C)NC(=O)[C@H](CCCNC(=N)N)NC(=O)[C@@H](N)CCCNC(=N)N)[C@@H](C)O)[C@@H](C)O)C(=O)N[C@@H](C)C(=O)O
B12: RRAPGKLT-Asp-LASY-Lys-WLFWTGIA-COOH (peptide)
peptide: RRAPGKLTDLASYKWLFWTGIA-OH
B13: RRAPGKCTALASYAWCFWTGIA-CONH2 (peptide)
peptide: RRAPGKCTALASYAWCFWTGIA-NH2
modifications: cysteine pairing not given here
B14: RRAPGKLT-Orn-LASY-Asp-WLFWTGIA-COOH (peptide)
peptide: RRAPGKLT[Orn]LASYDWLFWTGIA-OH
modifications: N-terminus assumed
SMILES: CC[C@H](C)[C@H](NC(=O)CNC(=O)[C@@H](NC(=O)[C@H](Cc1c[nH]c2ccccc12)NC(=O)[C@H](Cc1ccccc1)NC(=O)[C@H](CC(C)C)NC(=O)[C@H](Cc1c[nH]c2ccccc12)NC(=O)[C@H](CC(=O)O)NC(=O)[C@H](Cc1ccc(O)cc1)NC(=O)[C@H](CO)NC(=O)[C@H](C)NC(=O)[C@H](CC(C)C)NC(=O)[C@H](CCCN)NC(=O)[C@@H](NC(=O)[C@H](CC(C)C)NC(=O)[C@H](CCCCN)NC(=O)CNC(=O)[C@@H]1CCCN1C(=O)[C@H](C)NC(=O)[C@H](CCCNC(=N)N)NC(=O)[C@@H](N)CCCNC(=N)N)[C@@H](C)O)[C@@H](C)O)C(=O)N[C@@H](C)C(=O)O
B15: RRAPGKLT-Asp-LASY-Dab-WLFWTGIA-COOH (peptide)
peptide: RRAPGKLTDLASY[Dab]WLFWTGIA-OH
modifications: N-terminus assumed
SMILES: CC[C@H](C)[C@H](NC(=O)CNC(=O)[C@@H](NC(=O)[C@H](Cc1c[nH]c2ccccc12)NC(=O)[C@H](Cc1ccccc1)NC(=O)[C@H](CC(C)C)NC(=O)[C@H](Cc1c[nH]c2ccccc12)NC(=O)[C@H](CCN)NC(=O)[C@H](Cc1ccc(O)cc1)NC(=O)[C@H](CO)NC(=O)[C@H](C)NC(=O)[C@H](CC(C)C)NC(=O)[C@H](CC(=O)O)NC(=O)[C@@H](NC(=O)[C@H](CC(C)C)NC(=O)[C@H](CCCCN)NC(=O)CNC(=O)[C@@H]1CCCN1C(=O)[C@H](C)NC(=O)[C@H](CCCNC(=N)N)NC(=O)[C@@H](N)CCCNC(=N)N)[C@@H](C)O)[C@@H](C)O)C(=O)N[C@@H](C)C(=O)O
B16: RRAPGKLT-Asp-LASY-Dap-WLFWTGIA-CONH2 (peptide)
peptide: RRAPGKLTDLASY[Dap]WLFWTGIA-NH2
modifications: N-terminus assumed
SMILES: CC[C@H](C)[C@H](NC(=O)CNC(=O)[C@@H](NC(=O)[C@H](Cc1c[nH]c2ccccc12)NC(=O)[C@H](Cc1ccccc1)NC(=O)[C@H](CC(C)C)NC(=O)[C@H](Cc1c[nH]c2ccccc12)NC(=O)[C@H](CN)NC(=O)[C@H](Cc1ccc(O)cc1)NC(=O)[C@H](CO)NC(=O)[C@H](C)NC(=O)[C@H](CC(C)C)NC(=O)[C@H](CC(=O)O)NC(=O)[C@@H](NC(=O)[C@H](CC(C)C)NC(=O)[C@H](CCCCN)NC(=O)CNC(=O)[C@@H]1CCCN1C(=O)[C@H](C)NC(=O)[C@H](CCCNC(=N)N)NC(=O)[C@@H](N)CCCNC(=N)N)[C@@H](C)O)[C@@H](C)O)C(=O)N[C@@H](C)C(N)=O
B17: RRAPGKLT-Lys-LASY-Asp-WLFWTGIA-CONH2 (peptide)
peptide: RRAPGKLTKLASYDWLFWTGIA-NH2
B18: RRAPGKLT-Lys-LASY-Asp-WLFWTGIA-COOH (peptide)
peptide: RRAPGKLTKLASYDWLFWTGIA-OH

Square brackets hold non-standard residues; d marks the D form. Ends that are not written are not given here. Orn = NCCC[C@H](N)C(=O)O; Dab = NCC[C@H](N)C(=O)O; Dap = NC[C@H](N)C(=O)O

The assay addresses human Factor IXa (human, UniProt P00740 47-191; P00740 227-461). As to the kind of experiment: cell-based or functional assay.
On to B1, for which the “EC50 [µM], FXa generation assay” value was > 10 µM.

As for B2, the “EC50 [µM], FXa generation assay” value is > 1 µM.

On to B3, for which the “EC50 [µM], FXa generation assay” value was < 0.5 µM.

Regarding B4, the “EC50 [µM], FXa generation assay” value is < 0.5 µM.

On to B5, for which the “EC50 [µM], FXa generation assay” value is < 0.5 µM.

As to B6, the “EC50 [µM], FXa generation assay” value was > 10 µM.

As for B7, the “EC50 [µM], FXa generation assay” value is > 10 µM.

As for B8, the “EC50 [µM], FXa generation assay” value is < 0.5 µM.

As to B9, the “EC50 [µM], FXa generation assay” value was > 1 µM.

Regarding B10, the “EC50 [µM], FXa generation assay” value is > 1 µM.

As to B11, the “EC50 [µM], FXa generation assay” value is > 1 µM.

Regarding B12, the “EC50 [µM], FXa generation assay” value was < 0.5 µM.

Take B13: the “EC50 [µM], FXa generation assay” value was > 1 µM.

With B14, the “EC50 [µM], FXa generation assay” value is > 1 µM.

B15: the “EC50 [µM], FXa generation assay” value is > 10 µM.

Consider B16, for which the “EC50 [µM], FXa generation assay” value is > 1 µM.

Take B17: the “EC50 [µM], FXa generation assay” value was > 1 µM.

B18: the “EC50 [µM], FXa generation assay” value is > 10 µM.
